In experiment [1] the target is native CLPTM1 in membrane-permeabilised O-876 cells (Homo sapiens (Human)) (UniProt O96005). The experiment in a line: flow cytometry on permeabilised O-876 cells; half-maximal binding.
Experiment [2] shares this target. In words: flow cytometry on permeabilised O-876 cells, 10x dilution series; half-maximal binding. (Flow cytometry measures light scatter and fluorescence of single cells or particles in a stream.)
Experiment [3] concerns the target T1, native CLPTM1 in membrane-permeabilised O-876 cells (Homo sapiens (Human), UniProt O96005 2-669).
T1 construct: The protein was stained inside permeabilised cells, not only at the surface; also called native target; 0-876 cells expressing native CLPTM1
T1 sequence: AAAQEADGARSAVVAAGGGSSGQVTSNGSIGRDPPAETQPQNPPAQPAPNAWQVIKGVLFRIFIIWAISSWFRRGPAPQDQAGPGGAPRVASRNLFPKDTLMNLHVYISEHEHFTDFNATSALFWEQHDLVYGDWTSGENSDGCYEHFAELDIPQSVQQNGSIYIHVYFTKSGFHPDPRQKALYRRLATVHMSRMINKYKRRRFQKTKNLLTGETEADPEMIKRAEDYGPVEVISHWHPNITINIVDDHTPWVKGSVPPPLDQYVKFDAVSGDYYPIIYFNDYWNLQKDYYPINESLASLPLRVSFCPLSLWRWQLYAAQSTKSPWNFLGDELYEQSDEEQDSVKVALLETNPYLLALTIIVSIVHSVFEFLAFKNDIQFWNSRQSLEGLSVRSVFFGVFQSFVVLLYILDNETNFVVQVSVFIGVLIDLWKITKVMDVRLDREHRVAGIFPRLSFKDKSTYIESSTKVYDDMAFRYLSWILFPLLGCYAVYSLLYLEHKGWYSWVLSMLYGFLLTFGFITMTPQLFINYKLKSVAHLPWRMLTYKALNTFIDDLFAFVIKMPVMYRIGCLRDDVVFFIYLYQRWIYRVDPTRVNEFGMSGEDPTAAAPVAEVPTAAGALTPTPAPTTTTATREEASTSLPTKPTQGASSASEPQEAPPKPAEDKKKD
The experiment in a line: flow cytometry on permeabilised O-876 cells; half-maximal binding. As to the method:
(§1) Affinity of antibodies was determined by finding the half-maximal binding on the native target in a flow cytometry assay. Since the native target is found inside most cells and rarely on the cell surface, the assay was performed using plasma membrane-permeabilised cells, an intra-cellular staining protocol. Using the native target is more applicable when evaluating and comparing various antibodies as it is the true antigen to be bound in a therapeutic setting in vivo. 0-876 cells were permeabilised with BD-fix and permeabilisation buffer (554722 BD-Biosciences). Antibody at various concentrations was incubated with cells for 30 minutes at +4° C., then washed twice with wash buffer (BD-Biosciences 554723). Secondary antibodies a-mouse IgG-PE (Molecular Probes) was used for mouse monoclonal antibodies according to manufacturer's instructions and a-rabbit-IgG-PE (Molecular Probes) for rabbit monoclonal antibody (Abcam ERP8800). Three washes followed and fluorescence intensity in cells was quantified by FACS CantoII in PBS with cells in 2% FCS buffer.
(§2) The assay was performed on O-876 cancer cell line.

The target in experiment [4] is T1, native CLPTM1 in membrane-permeabilised …. In words: flow cytometry on permeabilised O-876 cells, 10x dilution series; half-maximal binding. As to the method:
CLPTM1 binding in permeabilised 0-876 cells expressing native CLPTM1 was measured in a 10× dilution series. […] The AbCam antibody also retained greater than 50% of its maximum binding at 0.1 μg/ml. The 59D04 antibody retained greater than 50% of its maximum binding at 1 μg/ml, whilst the Santa Cruz antibody had less than 50% of its maximum binding at this level.
as §1, with “Secondary antibodies a-mouse IgG-PE (Molecular Probes) was used for mouse monoclonal antibodies according to manufacturer's instructions and a-rabbit-IgG-PE (Molecular Probes) for rabbit monoclonal antibody (Abcam ERP8800).” left out

Experiment [5] shares this target. The experiment in a line: flow cytometry on permeabilised O-876 cells, antibody dilution series, PE-labelled secondary antibody. As to the method:
as §1, §2

A value given as a limit tells only on which side of the number the result lay.

We go through three molecules from US20190343962A1 (GENAGON THERAPEUTICS, published 2019).

The term EC50 denotes the concentration giving half of the maximal effect. A low value points to higher potency in that assay. In the case of “rabbit monoclonal anti-CLPTM1 antibody EPR8800 (RabMab, Abcam)”, the EC50 in experiment [1] is < 1 µg/mL; in experiment [2], < 0.1 µg/mL.

B1: anti-CLPTM1 mouse monoclonal antibody 7G12 (antibody, IgG1, V domains shown)
VH: QVQLQQSGTELVRPGTSVKVSCKASGYAFTNYLIEWVKQRPGQGLEWIGVINPGSGGTRYNEKFKGKATLTADKSSTTAHMQLSSLTSDDSAVYCARWGGNYSGYAMDYWGQGTSVTVSS
VL: QIVLTQSPVIMSASPGEKVTITCSASSSVSYMHWFQQKPGTSPKLWIYSTSNLASGVPARFSGSGSGTSYSLTISRMEAEDAATYYCQQRSSYPPTFGAGTKL
notes: Mouse monoclonal, IgG1 heavy chain, kappa light chain; The printed VL ends in 'TKL.' and may be incomplete; also called CLPTM1 clone 7G12 (IgG1)
One may read the Kd as the free concentration of one partner at which half of the binding sites on the other are occupied at equilibrium, for simple one-to-one binding. For the molecule B1, the EC50 in experiment [3] is < 1 µg/mL; in experiment [4], < 0.1 µg/mL. Also, in experiment [5], the Kd was < 1 nM.

B2: anti-CLPTM1 antibody 59D04 (format in the assay not stated) (antibody, V domains shown)
VH: EVQLVESGGGVVQPGRSLRLSCAASGFTFSTYAMHWVRQAPGKGLEWVAVISYDGTNKYYADSVKGRFTIFRDNSKNTLYLQMNSLRAEDTAVYYCGSGSYWGQGTLVTVSS
VL: QPVLTQPASVSGSPGQSITISCTGTSSDVGGYNYVSWYQQHPGKAPKLMIYEVTNRPSGVSDRFSGSKSGNTASLTISGLQAEDEADYYCSSYKSSNTVVFGGGTKVTVL
notes: Fully human antibody derived by phage display
For B2, the EC50 in experiment [4] is < 1 µg/mL.
